# Columns and labels:
# [1] = biological target: Human SIRPa-His fusion protein (extracellular domain of human SIRPa fused to His-tag) (human) (UniProt P78324); test: SPR, Biacore 3000 at 25 C, antibody captured by goat anti-human antibody, SIRPa-His as analyte
# [2] = biological target: Human SIRPa-His fusion protein (extracellular domain of human SIRPa fused to His-tag) (human) (UniProt P78324); test: Biacore (surface plasmon resonance), antibody captured, monomeric human SIRPa-His as analyte
Kd [1] [nM],Kd [2] [nM],Binder
5.53,,"Humanized 3C2 (antibody, human IgG1, kappa, N297A, V domains shown) VH: QVQLVQSGAEVKKPGASVKVSCKASGYTFTSYWMHWVRQAPGQGLEWMGNIDPSDSDTHYNQKFKDRVTMTRDTSTSTVYMELSSLRSEDTAVYYCARGYSKYYAMDYWGQGTLVTVSS VL: DIVMTQTPLSLSVTPGQPASISCRSSQSIVHSYGNTYLEWYLQKPGQSPQLLIYKVSNRFSGVPDRFSGSGSGTDFTLKISRVEAEDVGVYYCFQGSHVPYTFGQGTKLEIKR"
,5.58,"3C2 (parental mouse anti-human SIRPa monoclonal antibody) (antibody, V domains shown) VH: QVQLQQPGAELVRPGSSVKLSCKASGYTFTSYWMHWVKQRPIQGLEWIGNIDPSDSDTHYNQKFKDKATLTVDKSSSTAYMQLSSLTSEDSAVYYCARGYSKYYAMDYWGQGTSVTVSS VL: DVLMTQTPLSLSVSLGDQASISCRSSQSIVHSYGNTYLEWYLQKPGQSPKLLIYKVSNRFSGVPDRFSGSGSGTDFTLKISRVEAEDLGVYYCFQGSHVPYTFGGGTKLEIK"
1.15,,"Humanized 1H9 (antibody, human IgG1, kappa, N297A, V domains shown) VH: QVQLVQSGAEVKKPGASVKVSCKASGYTFTSYWITWVKQAPGQGLEWIGDIYPGSGSTNHIEKFKSKATLTVDTSISTAYMELSRLRSDDTAVYYCATGYGSSYGYFDYWGQGTLVTVSS VL: DIQMTQSPSSLSASVGDRVTITCRASENIYSYLAWYQQKPGKAPKLLIYTAKTLAEGVPSRFSGSGSGTDFTLTISSLQPEDFATYYCQHQYGPPFTFGQGTKLEIKR"
,2.06,"1H9 (parental mouse anti-human SIRPa monoclonal antibody) (antibody, V domains shown) VH: QVQLQQPGAERVKPGASVKMSCKASGYTFTSYWITWVKQRPGQGLEWIGDIYPGSGSTNHIEKFKSKATLTVDTSSNTAYMQLSRLTSEDSAVYYCATGYGSSYGYFDYWGQGTTLTVSS VL: DIQMTQSPASLSASVGETVTITCRASENIYSYLAWYQQKQGKSPQLLVYTAKTLAEGVPSRFSGSGSGTQFSLKINSLQPEDFGNYYCQHQYGPPFTFGSGTRLVIK"

# Reference: US20210171654A1
